# According to patent US20200262877A1, “ION CHANNEL-BINDING PEPTIDES AND METHODS OF USE THEREOF” (priority 2017, published 2020):
# Values joined by “and” are separate entries in the source; they are usually repeats but may differ in a detail not shown here. Identical values can stand only once. Counter-ions that a name gives are not always drawn.
# Assays:
# [1] = molecular target: T1, 5HT3a (Homo sapiens, UniProt P46098); assay: Ion channel panel (IonWorks Barracuda): 5HT3a; type: cell-based
# T1 construct: host or cells: HEK293 or CHO
# T1 sequence (P46098 whole entry, looked up): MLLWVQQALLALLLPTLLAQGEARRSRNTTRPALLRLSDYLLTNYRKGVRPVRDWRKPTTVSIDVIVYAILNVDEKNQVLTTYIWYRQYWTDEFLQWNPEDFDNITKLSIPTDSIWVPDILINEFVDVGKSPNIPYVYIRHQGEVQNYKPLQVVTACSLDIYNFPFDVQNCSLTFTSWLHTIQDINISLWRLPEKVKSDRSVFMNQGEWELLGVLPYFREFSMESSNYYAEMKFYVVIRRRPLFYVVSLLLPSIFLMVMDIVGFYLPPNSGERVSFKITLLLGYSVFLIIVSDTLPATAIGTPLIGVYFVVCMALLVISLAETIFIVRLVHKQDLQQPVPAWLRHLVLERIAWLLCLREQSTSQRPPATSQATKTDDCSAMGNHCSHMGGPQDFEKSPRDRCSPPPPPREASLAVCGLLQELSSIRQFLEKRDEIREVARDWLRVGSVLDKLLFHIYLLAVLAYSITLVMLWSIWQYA
# Description: (§1) This example describes a method for assaying ion channel activity in cells.
# (§2) Peptides were screened in duplicate at final concentrations of 20 μM and 200 nM, as determined by amino acid analysis, and diluted into HEPES buffered physiological saline (HBPS). HEK293 or CHO cells from the American Type Culture Collection (ATCC) were transfected with the appropriate ion channel before use. HEK293 cells were grown in Dulbecco's Modified Eagle Medium/Nutrient Mixture F-12, and CHO cells were cultured in Ham's F-12 media. All cultures were supplemented with 10% fetal bovine serum, 100 U/ml penicillin G, 100 μg/ml streptomycin sulfate, and the appropriate selection antibiotics. Prior to use, cells were washed twice with Hank's Balanced Salt Solution, and treated with Accutase cell detachment solution (Sigma-Aldrich). Cells were then washed. Peptides and controls were incubated with cells for at least five minutes.
# (§3) Percent inhibition was defined as: (1-(Ipeptide/Icontrol))×100%).
# (§4) Percent values were calculated using the following formula: % activation=(IPeptide/Icontrol)×100%, where IPeptide is the current produced by co-application a peptide with agonist, and Icontrol refers to the current produced by stimulation in control. Control used for each ion channel is the reference compound matched to a particular channel, as illustrated in TABLE 10 below.
# [2] = molecular target: T2, α3β4 (Homo sapiens, UniProt P30926+P32297); assay: Ion channel panel (IonWorks Barracuda): α3β4; type: cell-based; details: 100% = no change, <100% = inhibition
# T2 construct: host or cells: HEK293 or CHO
# Description: as §1, §2, §3, §4
# [3] = molecular target: T3, α4β2 (Homo sapiens, UniProt P17787+P43681); assay: Ion channel panel (IonWorks Barracuda): α4β2; type: cell-based
# T3 construct: host or cells: HEK293 or CHO
# Description: as §1, §2, §3, §4
# [4] = molecular target: T4, Cav2.1 (Homo sapiens, UniProt O00555); assay: cell-based
# T4 construct: host or cells: HEK293 or CHO
# Description: as §1, §2, §3, §4
# [5] = molecular target: T5, Cav2.2 (Homo sapiens, UniProt Q00975); assay: cell-based
# T5 construct: host or cells: HEK293 or CHO
# Description: as §1, §2, §3, §4
# [6] = molecular target: T6, Kv2.1 (Homo sapiens, UniProt Q14721); assay: cell-based
# T6 construct: host or cells: HEK293 or CHO
# Description: as §1, §2, §3, §4
# [7] = system: GABA; assay: Ion channel panel (IonWorks Barracuda): GABA; type: cell-based
# Description: as §1, §2, §3, §4
# [8] = molecular target: Nav1.5 (Homo sapiens, UniProt Q14524); assay: in vitro; details: 100% = no change; for Activity of Nav1.5 with peptide, expressed as a percentage of the reference compound: peptide at 0.2 μM; for Activity of Nav1.5 with peptide (percentage of the reference compound): peptide at 20 μM
# Description: as §1, §2, §3, §4
# [9] = molecular target: hERG (Homo sapiens, UniProt Q12809); assay: in vitro; details: 100% = no change, <100% = inhibition
# Description: as §1, §2, §3, §4
# [10] = molecular target: T7, Kir2.1 (Homo sapiens, UniProt P63252); assay: Ion channel panel (IonWorks Barracuda): Kir2.1; type: cell-based
# T7 construct: host or cells: HEK293 or CHO
# Description: as §1, §2, §3, §4
# [11] = molecular target: T8, Kv1.1 (Homo sapiens, UniProt Q09470); assay: cell-based; type: cell-based; details: 100% = no change, <100% = inhibition
# T8 construct: host or cells: HEK293 or CHO
# Description: as §1, §2, §3, §4
# [12] = molecular target: T9, Kv1.2 (Homo sapiens, UniProt P16389); assay: cell-based; type: cell-based; details: 100% = no change, <100% = inhibition
# T9 construct: host or cells: HEK293 or CHO
# Description: as §1, §2, §3, §4
# [13] = molecular target: T10, Kv1.3 (Homo sapiens, UniProt P22001); assay: cell-based; type: cell-based; details: for Kv1.3 inhibition: 0.2 or 20 μM, FIG. 2
# T10 construct: host or cells: HEK293 or CHO
# Description: as §1, §2, §3, §4
# [14] = molecular target: T11, Nav1.7 (Homo sapiens, UniProt Q15858); assay: cell-based; type: cell-based; details: for Activity of Nav1.7 with peptide, expressed as a percentage of the reference compound: peptide at 0.2 μM; for Activity of Nav1.7 with peptide, expressed as a percentage of the reference compound / Activity of Nav1.7 with peptide (percentage of the reference compound): 100% = no change; for Activity of Nav1.7 with peptide (percentage of the reference compound): peptide at 20 μM
# T11 construct: host or cells: HEK293 or CHO
# Description: as §1
# as §2, with “Peptides were screened in duplicate at final concentrations of 20 μM and 200 nM, as determined by amino acid analysis, and diluted into HEPES buffered physiological saline (HBPS).” left out
# as §3, §4
# [15] = molecular target: T12, NR2A (Homo sapiens, UniProt Q12879); assay: Ion channel panel (IonWorks Barracuda): NR2A; type: cell-based; details: 100% = no change, <100% = inhibition
# T12 construct: host or cells: HEK293 or CHO
# Description: as §1, §2, §3, §4
# [16] = molecular target: T13, NR2B (Homo sapiens, UniProt Q13224); assay: Ion channel panel (IonWorks Barracuda): NR2B; type: cell-based; details: 100% = no change, <100% = inhibition
# T13 construct: host or cells: HEK293 or CHO
# Description: as §1, §2, §3, §4
# [17] = molecular target: T14, TRPA1 (Homo sapiens, UniProt O75762); assay: Ion channel panel (IonWorks Barracuda): TRPA1; type: cell-based; details: 100% = no change, <100% = inhibition
# T14 construct: host or cells: HEK293 or CHO
# Description: as §1, §2, §3, §4
# [18] = molecular target: T15, TRPV1 (Homo sapiens, UniProt Q8NER1); assay: Ion channel panel (IonWorks Barracuda): TRPV1; type: cell-based
# T15 construct: host or cells: HEK293 or CHO
# Description: as §1, §2, §3, §4
# [19] = peptide at 0.2 μM, 100% = no change, <100% = inhibition
# [20] = peptide at 20 μM, 100% = no change, <100% = inhibition
# [21] = first of two Nav1.5 columns (probably TP1)
# [22] = second of two Nav1.5 columns (probably TP2)
# [23] = first of two Nav1.7 columns (probably TP1)
# [24] = second of two Nav1.7 columns (probably TP2)
# T3 sequence (P43681 29-627): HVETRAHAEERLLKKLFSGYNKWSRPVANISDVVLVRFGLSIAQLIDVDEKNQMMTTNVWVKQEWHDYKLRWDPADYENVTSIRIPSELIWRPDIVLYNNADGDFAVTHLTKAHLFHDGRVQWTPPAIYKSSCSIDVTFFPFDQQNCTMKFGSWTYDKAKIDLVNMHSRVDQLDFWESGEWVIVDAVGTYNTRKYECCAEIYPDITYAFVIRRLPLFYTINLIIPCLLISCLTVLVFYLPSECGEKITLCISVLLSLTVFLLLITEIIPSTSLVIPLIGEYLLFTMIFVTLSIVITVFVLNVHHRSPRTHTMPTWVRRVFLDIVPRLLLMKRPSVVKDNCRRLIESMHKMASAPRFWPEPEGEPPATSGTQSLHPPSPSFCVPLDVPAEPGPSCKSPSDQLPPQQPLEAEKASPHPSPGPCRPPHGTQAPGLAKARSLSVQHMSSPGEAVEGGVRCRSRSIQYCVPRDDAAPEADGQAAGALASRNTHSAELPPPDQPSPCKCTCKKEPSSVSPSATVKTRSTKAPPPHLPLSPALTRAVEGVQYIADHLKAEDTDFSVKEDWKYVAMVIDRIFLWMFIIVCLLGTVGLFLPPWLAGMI
# T3 sequence (P17787 26-502): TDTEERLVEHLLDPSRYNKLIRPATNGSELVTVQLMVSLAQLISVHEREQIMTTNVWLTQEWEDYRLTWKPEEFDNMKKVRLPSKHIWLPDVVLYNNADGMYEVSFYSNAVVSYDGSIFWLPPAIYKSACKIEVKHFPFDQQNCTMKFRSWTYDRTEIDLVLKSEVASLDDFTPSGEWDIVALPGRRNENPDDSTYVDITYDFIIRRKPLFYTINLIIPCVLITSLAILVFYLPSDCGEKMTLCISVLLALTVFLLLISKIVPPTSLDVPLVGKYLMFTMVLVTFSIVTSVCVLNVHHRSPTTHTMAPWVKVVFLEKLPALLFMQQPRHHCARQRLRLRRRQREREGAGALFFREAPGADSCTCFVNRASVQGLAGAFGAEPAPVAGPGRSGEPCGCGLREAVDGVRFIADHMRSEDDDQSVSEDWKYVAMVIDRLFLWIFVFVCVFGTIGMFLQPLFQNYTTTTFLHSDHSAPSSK
# T11 sequence (Q15858 whole entry): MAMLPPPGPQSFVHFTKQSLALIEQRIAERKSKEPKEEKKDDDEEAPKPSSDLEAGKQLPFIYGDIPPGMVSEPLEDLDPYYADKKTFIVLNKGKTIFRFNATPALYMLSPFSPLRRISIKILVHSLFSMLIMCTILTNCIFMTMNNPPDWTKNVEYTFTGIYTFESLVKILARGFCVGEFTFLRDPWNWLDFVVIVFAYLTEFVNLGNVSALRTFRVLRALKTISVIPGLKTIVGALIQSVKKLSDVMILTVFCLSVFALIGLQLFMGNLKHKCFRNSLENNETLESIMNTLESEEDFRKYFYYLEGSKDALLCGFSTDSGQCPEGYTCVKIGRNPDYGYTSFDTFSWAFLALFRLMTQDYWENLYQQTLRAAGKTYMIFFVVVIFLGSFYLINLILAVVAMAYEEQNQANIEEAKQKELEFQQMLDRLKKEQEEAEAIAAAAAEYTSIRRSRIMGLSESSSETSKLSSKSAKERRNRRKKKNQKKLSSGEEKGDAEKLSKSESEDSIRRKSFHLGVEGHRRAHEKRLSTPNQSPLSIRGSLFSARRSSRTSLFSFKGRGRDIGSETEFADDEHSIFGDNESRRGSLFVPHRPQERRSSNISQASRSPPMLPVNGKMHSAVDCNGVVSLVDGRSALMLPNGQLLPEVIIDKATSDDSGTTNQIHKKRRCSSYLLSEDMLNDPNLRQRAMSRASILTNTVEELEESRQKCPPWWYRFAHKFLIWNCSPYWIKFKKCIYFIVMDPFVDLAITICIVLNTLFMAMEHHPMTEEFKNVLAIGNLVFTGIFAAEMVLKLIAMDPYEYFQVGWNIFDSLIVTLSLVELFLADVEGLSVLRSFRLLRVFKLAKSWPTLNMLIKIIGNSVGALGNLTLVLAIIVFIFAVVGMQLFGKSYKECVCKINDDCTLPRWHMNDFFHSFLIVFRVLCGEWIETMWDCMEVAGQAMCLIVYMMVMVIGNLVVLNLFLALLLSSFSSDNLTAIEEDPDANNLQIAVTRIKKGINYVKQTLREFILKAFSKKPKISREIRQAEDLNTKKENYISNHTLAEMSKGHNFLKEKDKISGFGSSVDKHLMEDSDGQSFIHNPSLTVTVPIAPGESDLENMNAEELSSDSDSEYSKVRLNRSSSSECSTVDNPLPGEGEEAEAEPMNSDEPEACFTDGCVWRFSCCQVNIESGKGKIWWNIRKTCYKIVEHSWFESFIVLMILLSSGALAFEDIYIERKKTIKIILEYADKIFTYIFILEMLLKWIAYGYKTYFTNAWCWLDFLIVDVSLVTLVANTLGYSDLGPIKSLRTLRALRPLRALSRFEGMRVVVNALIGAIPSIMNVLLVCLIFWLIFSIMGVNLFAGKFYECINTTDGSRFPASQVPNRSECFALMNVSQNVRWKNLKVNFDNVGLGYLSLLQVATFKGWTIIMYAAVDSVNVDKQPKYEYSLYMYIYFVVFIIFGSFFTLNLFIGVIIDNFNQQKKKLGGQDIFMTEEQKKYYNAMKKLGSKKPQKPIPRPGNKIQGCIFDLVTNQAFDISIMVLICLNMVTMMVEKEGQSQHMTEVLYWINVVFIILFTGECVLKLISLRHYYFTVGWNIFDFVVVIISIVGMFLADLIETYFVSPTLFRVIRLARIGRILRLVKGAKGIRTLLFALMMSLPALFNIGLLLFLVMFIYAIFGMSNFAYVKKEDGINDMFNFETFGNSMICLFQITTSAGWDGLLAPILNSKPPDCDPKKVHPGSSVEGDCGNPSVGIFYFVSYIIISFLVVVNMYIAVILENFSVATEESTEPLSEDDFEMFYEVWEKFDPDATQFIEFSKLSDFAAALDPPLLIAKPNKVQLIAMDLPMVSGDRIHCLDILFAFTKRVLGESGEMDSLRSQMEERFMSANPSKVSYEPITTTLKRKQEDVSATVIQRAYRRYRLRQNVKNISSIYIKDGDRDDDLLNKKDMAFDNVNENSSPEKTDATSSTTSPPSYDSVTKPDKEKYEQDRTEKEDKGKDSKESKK
# T10 sequence (P22001 whole entry): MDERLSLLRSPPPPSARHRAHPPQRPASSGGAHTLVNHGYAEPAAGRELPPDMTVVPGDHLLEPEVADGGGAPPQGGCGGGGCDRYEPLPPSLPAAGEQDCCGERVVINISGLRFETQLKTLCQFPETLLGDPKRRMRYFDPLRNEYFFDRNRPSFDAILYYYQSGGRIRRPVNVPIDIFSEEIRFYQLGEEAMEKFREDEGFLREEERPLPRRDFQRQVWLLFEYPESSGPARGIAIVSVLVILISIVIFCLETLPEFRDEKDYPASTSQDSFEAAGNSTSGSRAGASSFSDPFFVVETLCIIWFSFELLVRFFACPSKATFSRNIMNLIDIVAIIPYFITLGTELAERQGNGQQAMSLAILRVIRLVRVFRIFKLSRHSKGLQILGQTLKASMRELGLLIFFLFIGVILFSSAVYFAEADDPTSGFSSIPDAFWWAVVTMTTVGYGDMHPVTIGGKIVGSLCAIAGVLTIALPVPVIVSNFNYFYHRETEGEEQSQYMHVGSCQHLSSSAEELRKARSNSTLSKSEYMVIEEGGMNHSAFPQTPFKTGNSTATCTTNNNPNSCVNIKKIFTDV
# T7 sequence (P63252 whole entry): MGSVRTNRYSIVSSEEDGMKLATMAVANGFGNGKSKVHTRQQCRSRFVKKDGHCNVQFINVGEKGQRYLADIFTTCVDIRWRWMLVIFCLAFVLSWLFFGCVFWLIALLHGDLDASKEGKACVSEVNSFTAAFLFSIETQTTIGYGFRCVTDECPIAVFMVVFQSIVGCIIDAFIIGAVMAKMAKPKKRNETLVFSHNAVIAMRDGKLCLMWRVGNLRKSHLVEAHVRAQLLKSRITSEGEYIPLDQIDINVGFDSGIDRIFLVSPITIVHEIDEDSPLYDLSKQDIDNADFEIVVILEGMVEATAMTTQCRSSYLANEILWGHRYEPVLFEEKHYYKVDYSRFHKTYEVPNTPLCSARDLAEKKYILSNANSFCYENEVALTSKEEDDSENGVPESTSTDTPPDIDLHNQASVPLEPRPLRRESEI
# T15 sequence (Q8NER1 whole entry): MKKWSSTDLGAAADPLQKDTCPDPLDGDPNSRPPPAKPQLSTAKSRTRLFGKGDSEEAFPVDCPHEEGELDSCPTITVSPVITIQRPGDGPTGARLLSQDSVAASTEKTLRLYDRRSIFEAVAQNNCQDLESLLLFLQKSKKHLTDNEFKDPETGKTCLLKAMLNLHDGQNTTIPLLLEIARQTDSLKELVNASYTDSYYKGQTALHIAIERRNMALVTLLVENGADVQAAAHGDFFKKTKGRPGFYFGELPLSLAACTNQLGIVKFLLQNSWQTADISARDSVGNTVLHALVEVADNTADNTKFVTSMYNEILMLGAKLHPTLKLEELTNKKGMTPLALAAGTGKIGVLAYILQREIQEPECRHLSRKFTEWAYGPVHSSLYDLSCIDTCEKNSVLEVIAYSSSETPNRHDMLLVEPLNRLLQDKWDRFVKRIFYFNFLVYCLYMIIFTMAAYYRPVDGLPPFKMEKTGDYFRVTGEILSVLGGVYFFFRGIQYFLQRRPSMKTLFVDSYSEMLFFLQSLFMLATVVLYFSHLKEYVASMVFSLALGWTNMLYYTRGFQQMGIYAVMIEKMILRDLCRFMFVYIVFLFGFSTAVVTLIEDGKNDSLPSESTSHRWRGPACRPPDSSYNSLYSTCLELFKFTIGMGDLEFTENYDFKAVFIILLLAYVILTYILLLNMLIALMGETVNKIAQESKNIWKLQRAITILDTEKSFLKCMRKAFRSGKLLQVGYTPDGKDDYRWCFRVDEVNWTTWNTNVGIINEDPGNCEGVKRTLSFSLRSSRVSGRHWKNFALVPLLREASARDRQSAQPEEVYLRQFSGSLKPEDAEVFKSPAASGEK
molecule,measurement,setting,value
27 (GSACQFWSCNSSCISRGYRQGYCWGIQYKYCQCQ) [compound 27],Activity of 5HT3a with peptide (percentage of the reference compound),[1],78%
same,"Activity of 5HT3a with peptide, expressed as a percentage of the reference compound",[1],105%
same,"Activity of a3b4 with peptide, expressed as a percentage of the reference compound",[2]; peptide at 0.2 μM,98%
same,Activity of a3b4 with peptide (percentage of the reference compound),[2]; peptide at 20 μM,93%
same,"Activity of a4b2 with peptide, expressed as a percentage of the reference compound",[3]; [19],90%
same,Activity of a4b2 with peptide (percentage of the reference compound),[3]; [20],82%
same,"Activity of Cav2.1 with peptide, expressed as a percentage of the reference compound",[4]; [19],108%
same,Activity of Cav2.1 with peptide (percentage of the reference compound),[4]; [20],103%
same,"Activity of Cav2.2 with peptide, expressed as a percentage of the reference compound",[5]; [19],105%
same,Activity of Cav2.2 with peptide (percentage of the reference compound),[5]; [20],116%
same,"Activity of Kv2.1 with peptide, expressed as a percentage of the reference compound",[6]; [19],91%
same,Activity of Kv2.1 with peptide (percentage of the reference compound),[6]; [20],94%
same,"Activity of GABA with peptide, expressed as a percentage of the reference compound",[7]; [19],112%
same,Activity of GABA with peptide (percentage of the reference compound),[7]; [20],105%
same,"Activity of Nav1.5 with peptide, expressed as a percentage of the reference compound",[8]; [21],94%
same,"Activity of Nav1.5 with peptide, expressed as a percentage of the reference compound",[8]; [22],93%
same,Activity of Nav1.5 with peptide (percentage of the reference compound),[8]; [21],104%
same,Activity of Nav1.5 with peptide (percentage of the reference compound),[8]; [22],109%
same,"Activity of hERG with peptide, expressed as a percentage of the reference compound",[9]; peptide at 0.2 μM,90%
same,Activity of hERG with peptide (percentage of the reference compound),[9]; peptide at 20 μM,75%
same,"Activity of Kir2.1 with peptide, expressed as a percentage of the reference compound",[10]; [19],101%
same,Activity of Kir2.1 with peptide (percentage of the reference compound),[10]; [20],86%
same,"Activity of Kv1.1 with peptide, expressed as a percentage of the reference compound",[11]; peptide at 0.2 μM,81%
same,Activity of Kv1.1 with peptide (percentage of the reference compound),[11]; peptide at 20 μM,89%
same,"Activity of Kv1.2 with peptide, expressed as a percentage of the reference compound",[12]; peptide at 0.2 μM,84%
same,Activity of Kv1.2 with peptide (percentage of the reference compound),[12]; peptide at 20 μM,107%
same,"Activity of Kv1.3 with peptide, expressed as a percentage of the reference compound",[13]; [19],106%
same,Activity of Kv1.3 with peptide (percentage of the reference compound),[13]; [20],100%
same,"Activity of Nav1.7 with peptide, expressed as a percentage of the reference compound",[14]; [23],104%
same,"Activity of Nav1.7 with peptide, expressed as a percentage of the reference compound",[14]; [24],114%
same,Activity of Nav1.7 with peptide (percentage of the reference compound),[14]; [23],97%
same,Activity of Nav1.7 with peptide (percentage of the reference compound),[14]; [24],97%
same,"Activity of NR2A with peptide, expressed as a percentage of the reference compound",[15]; peptide at 0.2 μM,98%
same,Activity of NR2A with peptide (percentage of the reference compound),[15]; peptide at 20 μM,88%
same,"Activity of NR2B with peptide, expressed as a percentage of the reference compound",[16]; peptide at 0.2 μM,79%
same,Activity of NR2B with peptide (percentage of the reference compound),[16]; peptide at 20 μM,89%
same,"Activity of TRPA1 with peptide, expressed as a percentage of the reference compound",[17]; peptide at 0.2 μM,85%
same,Activity of TRPA1 with peptide (percentage of the reference compound),[17]; peptide at 20 μM,114%
same,"Activity of TRPV1 with peptide, expressed as a percentage of the reference compound",[18]; [19],99%
same,Activity of TRPV1 with peptide (percentage of the reference compound),[18]; [20],67%
"Oc1cc2c(cc1O)CN(C(=S)NCCc1ccc(Cl)cc1)CCC2 [Capsazepine, reference compound]",IC50,[18],0.09 µM
"CCN(CC)CC(=O)Nc1c(C)cccc1C [Lidocaine, reference compound]",IC50,[14]; IC50 of receptor/channel inhibition with reference compound,465 µM and 285 µM
"[Ba+2].[Cl-].[Cl-] [BaCl2, reference compound]",IC50,"[10]; Kir2.1, read-out: IC50 of receptor/channel inhibition with reference compound",5.25 µM
"COCC(=O)O[C@]1(CCN(C)CCCc2nc3ccccc3[nH]2)CCc2cc(F)ccc2[C@@H]1C(C)C [Mibefradil dihydrochloride, reference compound]",IC50,"[4]; Cav2.1, read-out: IC50 of receptor/channel inhibition with reference compound",2.12 µM
same,IC50,"[5]; Cav2.2, read-out: IC50 of receptor/channel inhibition with reference compound",8.28 µM
Picrotoxin [reference compound],IC50,"[7]; GABA, read-out: IC50 of receptor/channel inhibition with reference compound",1.72 µM
"COc1ccc(CCN(C)CCCC(C#N)(c2ccc(OC)c(OC)c2)C(C)C)cc1OC (stereo not drawn) [Verapamil, reference compound]",IC50,[6],78 µM
GSECLEIFKACNPSNDQCCKSSKLVCSRKTRWCKYQIG [SEQ ID NO: 31],Activity against Nav1.7 channels,"[14]; 0.2 or 20 μM, FIG. 2","showed activity on tetrodotoxin-sensitive sodium channels (e.g., Nav1.7)"
GSQFTDVKCTGSKQCWPVCKQMFGKPNGKCMNGKCRCYS [SEQ ID NO: 19],Kv1.3 inhibition,[13],showed strong Kv1.3 inhibition
"CNC1(C)C2CCC(C2)C1(C)C (stereo not drawn) [Mecamylamine, reference compound]",IC50,"[3]; α4β2, read-out: IC50 of receptor/channel inhibition with reference compound",1.14 µM
GSGVPTDVKCRGSPQCIQPCKDAGMRFGKCMNGKCHCTPK [SEQ ID NO: 39],Kv1.3 inhibition,[13],showed strong Kv1.3 inhibition
